# B1: 2-4 Fab (Fab, V domains shown)
# VH: QVQLVQSGAEVKKPGASVKVSCKASGYTFTGYYMHWVRQAPGQGLEWMGWINPNSGGTNYTQMFQGRVTMTRDTSISTAYMEVSRLRSDDTAVYYCARDRSWAVVYYYMDVWGKGTTVTVSS
# VL: QSALTQPPSASGSPGQSVTISCTGTSSDVGGYNYVSWYQQHPGKAPKLMIYEVSKRPSGVPDRFSGSKSGNTASLTVSGLQAEDEADYYCSSYAGSNNLVFGGGTKLTVL
# Biological target: SARS-CoV-2 spike trimer (S trimer), soluble ectodomain (SARS-CoV-2, Wuhan-Hu-1 type, stabilised)
# Experiment: cryo-EM structure
binder,measurement,value
B1,stoichiometry N,3 Fab per trimer

# Reference: publication doi:10.1101/2020.06.17.153486 (bioRxiv, 2020)
